Assay results published in patent publication US20250161220A1, “LYMPHATIC DELIVERY OF NANOPARTICLES TO TREAT NEURODEGENERATIVE, NEUROLOGICAL, AND EYE CONDITIONS” (The Cleveland Clinic Foundation, priority 2022, published 2025).

Test: Catalytic activity of recombinant human CAT versus bovine CAT
Format: biochemical
Settings: data normalized to per mg
Excerpt: In certain embodiments, the nanoparticles are formulated with antioxidant enzymes. For example, the following may be employed for generating SOD and catalase nanoparticles. […] In certain embodiments, SOD is an enzyme that catalyzes the conversion of superoxide to H2O2 and catalase is an enzyme that further degrades H2O2 to molecular oxygen and water. The SOD and catalase for use in the methods and compositions of the invention can be obtained from a variety of sources. In a particular embodiment, the SOD and/or catalase are mammalian SOD and/or mammalian catalase, and/or recombinant catalase. As used herein “mammal” and/or “mammalian” refer to a primate, canine, feline, rodent, and the like. Specific examples of mammalian SOD and/or catalase include human, pig, dog, cat, horse, cow, sheep, goat, rabbit, guinea pig, rats and mice SOD and/or catalase.

B1: Human CAT: Recombinant human catalase obtained from BioVision or Creative BioMart (protein, UniProt P04040 2-527, looked up)
Catalase: ADSRDPASDQMQHWKEQRAAQKADVLTTGAGNPVGDKLNVITVGPRGPLLVQDVVFTDEMAHFDRERIPERVVHAKGAGAFGYFEVTHDITKYSKAKVFEHIGKKTPIAVRFSTVAGESGSADTVRDPRGFAVKFYTEDGNWDLVGNNTPIFFIRDPILFPSFIHSQKRNPQTHLKDPDMVWDFWSLRPESLHQVSFLFSDRGIPDGHRHMNGYGSHTFKLVNANGEAVYCKFHYKTDQGIKNLSVEDAARLSQEDPDYGIRDLFNAIATGKYPSWTFYIQVMTFNQAETFPFNPFDLTKVWPHKDYPLIPVGKLVLNRNPVNYFAEVEQIAFDPSNMPPGIEASPDKMLQGRLFAYPDTHRHRLGPNYLHIPVNCPYRARVANYQRDGPMCMQDNQGGAPNYYPNSFGAPEQQPSALEHSIQYSGEVRRFNTANDDNVTQVRAFYVNVLNEEQRKRLCENIAGHLKDAQIFIQKKAVKNFTEVHPDYGSHIQALLDKYNAEKPKNAIHTFVQSGSHLAAREKANL
- catalytic potency relative to bovine CAT: 5.7 fold
